Data: the supplement of paper PMC9112550, “Optimization of the antimicrobial peptide Bac7 by deep mutational scanning” (BMC Biology, 2022)

Tested on: Escherichia coli TOP10
Assay: shrunken log2 fold change of peptide-encoding DNA abundance (4.5 h post-induction vs induction); higher = less antimicrobial activity (less host growth inhibition)
Details: time post-induction: 4.5 h; library: site-saturation at positions 5, 18, 19, 20
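Note: peptides expressed intracellularly from a pBAD plasmid library in pooled LB shake-flask culture, induced with 0.3% L-arabinose, DNA abundance read by NGS, three biological replicates, DESeq2 with apeglm shrinkage.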

Sequence	shrunken log2 fold change
RRIRARPPRLPRPRPRPFKSPRP	-0.549
RRIRARPPRLPRPRPRPFMFPRP	0.189
RRIRARPPRLPRPRPRPFNEPRP	-0.1
RRIRARPPRLPRPRPRPFNFPRP	-0.0477
RRIRARPPRLPRPRPRPFPHPRP	0.146
RRIRARPPRLPRPRPRPFQYPRP	0.0189
RRIRARPPRLPRPRPRPFSGPRP	-0.00374
RRIRARPPRLPRPRPRPFSRPRP	-0.145
RRIRARPPRLPRPRPRPFSWPRP	-0.0923
RRIRARPPRLPRPRPRPFVFPRP	0.166
RRIRARPPRLPRPRPRPFVHPRP	-0.207
RRIRARPPRLPRPRPRPGAAPRP	1.1
RRIRARPPRLPRPRPRPGCNPRP	0.252
RRIRARPPRLPRPRPRPGEGPRP	1.02
RRIRARPPRLPRPRPRPGELPRP	0.333
RRIRARPPRLPRPRPRPGEQPRP	0.135
RRIRARPPRLPRPRPRPGETPRP	0.238
RRIRARPPRLPRPRPRPGFCPRP	0.572
RRIRARPPRLPRPRPRPGHPPRP	0.543
RRIRARPPRLPRPRPRPGHVPRP	0.0499

Sequence	shrunken log2 fold change
RRIRARPPRLPRPRPRPGIAPRP	0.331
RRIRARPPRLPRPRPRPGITPRP	0.335
RRIRARPPRLPRPRPRPGKDPRP	0.36
RRIRARPPRLPRPRPRPGLGPRP	1.16
RRIRARPPRLPRPRPRPGLLPRP	0.547
RRIRARPPRLPRPRPRPGMLPRP	0.334
RRIRARPPRLPRPRPRPGNIPRP	-0.239
RRIRARPPRLPRPRPRPGNPPRP	0.167
RRIRARPPRLPRPRPRPGNVPRP	0.332
RRIRARPPRLPRPRPRPGPIPRP	0.341
RRIRARPPRLPRPRPRPGQIPRP	0.216
RRIRARPPRLPRPRPRPGQSPRP	0.266
RRIRARPPRLPRPRPRPGQYPRP	0.0253
RRIRARPPRLPRPRPRPGREPRP	0.388
RRIRARPPRLPRPRPRPGRQPRP	0.706
RRIRARPPRLPRPRPRPGRRPRP	0.339
RRIRARPPRLPRPRPRPGSAPRP	0.444
RRIRARPPRLPRPRPRPGSQPRP	0.368
RRIRARPPRLPRPRPRPGTHPRP	0.173
RRIRARPPRLPRPRPRPGTMPRP	0.351

Sequence	shrunken log2 fold change
RRIRARPPRLPRPRPRPGTTPRP	0.143
RRIRARPPRLPRPRPRPGWNPRP	0.545
RRIRARPPRLPRPRPRPHAGPRP	0.122
RRIRARPPRLPRPRPRPHCYPRP	0.101
RRIRARPPRLPRPRPRPHDRPRP	0.128
RRIRARPPRLPRPRPRPHERPRP	0.0956
RRIRARPPRLPRPRPRPHETPRP	0.062
RRIRARPPRLPRPRPRPHGKPRP	0.175
RRIRARPPRLPRPRPRPHGVPRP	0.0905
RRIRARPPRLPRPRPRPHKKPRP	-0.163
RRIRARPPRLPRPRPRPHLAPRP	0.298
RRIRARPPRLPRPRPRPHLLPRP	-0.0598
RRIRARPPRLPRPRPRPHLNPRP	0.102
RRIRARPPRLPRPRPRPHMMPRP	-0.12
RRIRARPPRLPRPRPRPHMYPRP	-0.149
RRIRARPPRLPRPRPRPHNEPRP	-0.258
RRIRARPPRLPRPRPRPHNQPRP	-0.00392
RRIRARPPRLPRPRPRPHPIPRP	0.286
RRIRARPPRLPRPRPRPHPPPRP	0.706
RRIRARPPRLPRPRPRPHRGPRP	0.14
